Measurements: patent US20220195043A1 (BEIJING MABWORKS BIOTECH, published 2022)
Positions count from the first letter of the chain named. In names and notes the source's numbering stands. Each block holds one binder with its values, some of them ahead of it.

Legend:
[1] = target: T1, human CD3ε-his (Cat #:10977-H08s, SinoBiological, China) (human, UniProt P07766 23-126); test: SPR (BIAcore 8K); human CD3ε-his coupled to CM5 chip, antibody injected
T1 construct: Bought protein; also called human CD3ε protein; recombinant human CD3ε; not shown: his tag

[2] = target: T2, human TCR/CD3 complex on cell surfaces (primary human CD4+ T cells; Jurkat cells; human PBMCs) (human, UniProt P07766 23-207); test: FACS on Jurkat cells, PE goat anti-human IgG, MFI
T2 construct: whole, on cells; Native complex on cells; the γ, δ, ζ and TCR chains of the complex are present on the cells too; also called human CD3 complexes on cell surfaces; human CD3+ T cells

[3] = target: T3, human CD64 (HEK293A/human CD64 cells) (human, UniProt P12314 16-374); test: FACS on HEK293A/human CD64 cells, PE F(ab')2 goat anti-human IgG Fc, MFI; bars at 40, 8, 1.6, 0.32 and 0.064 µg/mL
T3 construct: Stably expressed on HEK293A cells; also called FcγRI

[4] = target: T4, human CD16A (HEK293A/human CD16A cells) (human, UniProt P08637 17-254); test: FACS on HEK293A/human CD16A cells, PE F(ab')2 goat anti-human IgG Fc, MFI; bars at 40, 8, 1.6, 0.32 and 0.064 µg/mL
T4 construct: Stably expressed on HEK293A cells; also called FcγRIIIA

[5] = target: T5, human CD32A (HEK293A/human CD32A cells) (human, UniProt P12318 34-317); test: FACS on HEK293A/human CD32A cells, PE F(ab')2 goat anti-human IgG Fc, MFI; bars at 40, 8, 1.6, 0.32 and 0.064 µg/mL
T5 construct: Stably expressed on HEK293A cells; also called FcγRIIA
T5 sequence: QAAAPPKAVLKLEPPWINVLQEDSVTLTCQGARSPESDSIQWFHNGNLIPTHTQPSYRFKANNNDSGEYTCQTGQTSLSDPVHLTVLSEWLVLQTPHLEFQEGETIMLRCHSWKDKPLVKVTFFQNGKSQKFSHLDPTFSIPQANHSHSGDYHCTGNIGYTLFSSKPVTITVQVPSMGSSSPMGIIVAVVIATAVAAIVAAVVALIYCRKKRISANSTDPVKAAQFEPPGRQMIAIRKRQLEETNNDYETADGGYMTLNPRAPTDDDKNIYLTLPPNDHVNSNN

[6] = target: T6, human CD32B (HEK293A/human CD32B cells) (human, UniProt P31994 43-310); test: FACS on HEK293A/human CD32B cells, PE F(ab')2 goat anti-human IgG Fc, MFI; bars at 40, 8, 1.6, 0.32 and 0.064 µg/mL
T6 construct: Stably expressed on HEK293A cells; also called FcγRIIB
T6 sequence: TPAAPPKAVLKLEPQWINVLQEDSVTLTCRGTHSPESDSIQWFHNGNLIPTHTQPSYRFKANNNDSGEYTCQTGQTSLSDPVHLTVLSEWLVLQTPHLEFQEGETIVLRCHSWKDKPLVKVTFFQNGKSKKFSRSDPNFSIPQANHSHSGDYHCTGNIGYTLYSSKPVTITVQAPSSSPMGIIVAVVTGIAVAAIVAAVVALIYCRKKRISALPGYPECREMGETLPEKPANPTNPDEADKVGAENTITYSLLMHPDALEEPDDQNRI

[7] = target: T2, human TCR/CD3 complex on cell surfaces …; test: FACS on primary human T cells, PE goat anti-human IgG, MFI
[8] = target: T1, human CD3ε-his (Cat #:10977-H08s, …); test: ELISA: plate coated with human CD3ε-his, antibody titrated, HRP goat anti-human IgG, OD450
[9] = target: T7, monkey CD3ε-his (Cat #: 90047-C08H, SinoBiological, China) (monkey, UniProt Q95LI5 22-117); test: ELISA: plate coated with monkey CD3ε-his, antibody titrated, HRP goat anti-human IgG, OD450
T7 construct: Bought protein; also called monkey CD3ε protein; recombinant monkey CD3ε
T7 sequence: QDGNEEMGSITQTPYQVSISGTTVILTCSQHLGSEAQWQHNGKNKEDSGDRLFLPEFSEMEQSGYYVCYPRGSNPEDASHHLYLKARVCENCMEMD

[10] = target: T1, human CD3ε-his (Cat #:10977-H08s, …); test: ELISA: plate coated with human CD3ε-his, antibody titrated, HRP goat anti-human IgG, OD 450
[11] = target: T7, monkey CD3ε-his (Cat #: 90047-C08H, …); test: ELISA: plate coated with monkey CD3ε-his, antibody titrated, HRP goat anti-human IgG, OD 450

T2 sequence (P07766 23-207, one chain of several): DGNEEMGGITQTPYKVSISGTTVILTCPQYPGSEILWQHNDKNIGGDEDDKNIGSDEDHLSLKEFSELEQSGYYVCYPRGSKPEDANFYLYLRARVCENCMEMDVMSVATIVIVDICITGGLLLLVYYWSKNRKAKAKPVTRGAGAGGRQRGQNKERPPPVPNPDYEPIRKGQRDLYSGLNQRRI
T3 sequence (P12314 16-374 limits assumed): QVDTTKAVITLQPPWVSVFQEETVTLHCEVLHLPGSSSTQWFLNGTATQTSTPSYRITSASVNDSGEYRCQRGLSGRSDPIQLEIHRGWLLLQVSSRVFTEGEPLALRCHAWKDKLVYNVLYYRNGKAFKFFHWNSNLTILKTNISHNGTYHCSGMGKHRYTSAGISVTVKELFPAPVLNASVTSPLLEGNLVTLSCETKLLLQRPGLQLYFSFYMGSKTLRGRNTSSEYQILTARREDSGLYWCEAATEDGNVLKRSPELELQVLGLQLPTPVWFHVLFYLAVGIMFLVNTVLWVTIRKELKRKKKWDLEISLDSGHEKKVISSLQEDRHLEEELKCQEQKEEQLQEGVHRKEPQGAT
T4 sequence (P08637 17-254 F176V limits assumed): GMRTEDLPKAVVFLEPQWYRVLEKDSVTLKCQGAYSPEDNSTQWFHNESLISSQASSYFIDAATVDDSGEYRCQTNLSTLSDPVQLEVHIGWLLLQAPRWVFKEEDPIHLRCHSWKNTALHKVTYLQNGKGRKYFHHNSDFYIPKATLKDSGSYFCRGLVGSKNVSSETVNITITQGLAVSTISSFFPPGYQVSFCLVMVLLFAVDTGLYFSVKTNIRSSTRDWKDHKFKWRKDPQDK
T1 sequence (P07766 23-126 limits assumed): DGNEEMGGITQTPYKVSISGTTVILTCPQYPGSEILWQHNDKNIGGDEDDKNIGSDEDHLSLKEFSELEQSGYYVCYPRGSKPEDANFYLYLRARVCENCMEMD

- Kd [1]: 0.154 nM
B1: mAB2 (anti-CD3 antibody of Macrogenics, positive control) (antibody, V domains shown)
VH: EVQLVESGGGLVQPGGSLKLSCAASGFTFNTYAMNWVRQAPGKGLEWVARIRSKYNNYATYYADSVKDRFTISRDDSKNTAYLQMNSLKTEDTAVYYCVRHGNFGDSYVSWFAYWGQGTLVTVSS
VL: QTVVTQEPSLTVSPGGTVTLTCRSSTGAVTTSNYANWVQQKPGQAPRGLIGGTNKRAPGTPARFSGSLLGGKAALTLSGVQPEDEAEYYCALWYSNLWVFGGGTKLTVL

- EC50 (read off the curve) [2]: ~90 ng/mL
- binding result [3]: no binding (tested: 40 µg/mL)
- binding result [4]: no binding (tested: 40 µg/mL)
B5: 15H3L3-LLP (15H3L3 with IgG1 constant region L234A/L235A/P329G) (antibody)
heavy: EVQLLESGGGLVQPGGSLRLSCAASGFTFNTYAMNWVRQAPGKGLEWVARIRSKYNNYATYYAISVKDRFTISRDDSKNTLYLQMNSLRAEDTAMYYCVRHGNFGNSYLSYWAYWGQGTLVTVSSASTKGPSVFPLAPSSKSTSGGTAALGCLVKDYFPEPVTVSWNSGALTSGVHTFPAVLQSSGLYSLSSVVTVPSSSLGTQTYICNVNHKPSNTKVDKKVEPKSCDKTHTCPPCPAPEAAGGPSVFLFPPKPKDTLMISRTPEVTCVVVDVSHEDPEVKFNWYVDGVEVHNAKTKPREEQYNSTYRVVSVLTVLHQDWLNGKEYKCKVSNKALGAPIEKTISKAKGQPREPQVYTLPPSREEMTKNQVSLTCLVKGFYPSDIAVEWESNGQPENNYKTTPPVLDSDGSFFLYSKLTVDKSRWQQGNVFSCSVMHEALHNHYTQKSLSLSPGK
light: QAVVTQEPSLTVSPGGTVTLTCQSSTGAVTTNNYANWVQQKPGHAFRGLIGGTKQRAPGVPARFSGSLLGGKAALTLSGVQPEDEAEYYCVLWYSNLWVFGGGTKLTVLGQPKAAPSVTLFPPSSEELQANKATLVCLISDFYPGAVTVAWKADSSPVKAGVETTTPSKQSNNKYAASSYLSLTPEQWKSHRSYSCQVTHEGSTVEKTVAPT

- EC50 (read off the curve) [7]: ~100 µg/mL
B7: chimeric antibody 19-37 (full length, human IgG1) (antibody, V domains shown)
VH: EVKLLESGGGLVQPKGSLKLSCAASGFTFNTYAMNWVRQAPGKGLEWVARIRSKYNNYATYYAISVKDRFTISRDDSQSILYLQMNNLKTEDTAMYYCVRHGNFGNSYISYWAYWGQGTLVTVSA
VL: QAVVTQESALTTSPGETVTLTCRSSTGAVTTNNYANWVQEKPDHLFTGLIGGTRLSAPGVPARFSGSLIGDKAALTITGAQTEDEAIYFCVLWYSNLWVFGGGTKLTVLG

- EC50 (read off the curve) [10]: ~0.08 µg/mL
- EC50 (read off the curve) [11]: ~0.1 µg/mL
B9: humanized anti-CD3 antibody 26H3L3 (human IgG1) (antibody, V domains shown)
VH: B1 VH with V5L, K19R, A81L, K89R, T90A, V95M, D106N, V109I, F112W
VL: QAVVTQEPSLTVSPGGTVTLTCKSSTGAVTTSNYANWVQQKPGHAFRGLIGGTNLHAPGVPARFSGSLLGGKAALTLSGVQPEDEAEYYCALWYSNLWVFGGGTKLTVLG

The remaining lines, values behind:

B2: 15H3L3-WT (15H3L3 with wild-typed IgG1 constant region and λ constant region SEQ ID NO: 32) (antibody)
heavy: not shown
light: B5 light
notes: also called 15H3L3 antibody with wild-typed Fc region
- EC50 (read off the curve) [2]: ~100 ng/mL
- binding result [3]: binds
- binding result [4]: binds
- binding result [5]: binds
- binding result [6]: binds

B3: 15H3L3-LL (15H3L3 with IgG1 constant region L234A/L235A) (antibody)
heavy: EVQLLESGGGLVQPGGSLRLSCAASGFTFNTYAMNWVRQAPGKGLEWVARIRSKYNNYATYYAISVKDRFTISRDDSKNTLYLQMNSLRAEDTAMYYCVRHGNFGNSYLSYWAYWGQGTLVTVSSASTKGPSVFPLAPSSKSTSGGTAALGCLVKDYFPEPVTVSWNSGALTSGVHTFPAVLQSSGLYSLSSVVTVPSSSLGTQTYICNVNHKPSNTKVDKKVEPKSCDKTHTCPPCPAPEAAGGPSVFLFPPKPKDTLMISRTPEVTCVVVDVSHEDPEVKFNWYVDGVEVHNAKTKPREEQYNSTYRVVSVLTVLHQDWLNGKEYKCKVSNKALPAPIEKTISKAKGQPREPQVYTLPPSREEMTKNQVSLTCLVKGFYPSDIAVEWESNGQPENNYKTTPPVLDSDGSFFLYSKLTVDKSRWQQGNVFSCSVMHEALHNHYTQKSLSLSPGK
light: B5 light
- EC50 (read off the curve) [2]: ~90 ng/mL
- binding result [3]: binds
- binding result [4]: no binding (tested: 40 µg/mL)
- binding result [5]: binds
- binding result [6]: binds

B4: 15H3L3-LLNP (15H3L3 with IgG1 constant region L234A/L235A/N297A/P329G) (antibody)
heavy: B5 heavy with N305A
light: B5 light
notes: also called 15H3L3-LLPN
- EC50 (read off the curve) [2]: ~90 ng/mL
- binding result [3]: no binding (tested: 40 µg/mL)
- binding result [4]: no binding (tested: 40 µg/mL)
- binding result [5]: no binding (tested: 40 µg/mL)
- binding result [6]: no binding (tested: 40 µg/mL)

B6: 15H3L3-LLN (15H3L3 with IgG1 constant region L234A/L235A/N297A) (antibody)
heavy: B5 heavy with N305A, G337P
light: B5 light
- EC50 (read off the curve) [2]: ~90 ng/mL
- binding result [3]: no binding (tested: 40 µg/mL)
- binding result [4]: no binding (tested: 40 µg/mL)
- binding result [5]: no binding (tested: 40 µg/mL)

B8: humanized anti-CD3 antibody 15H2L3 (human IgG1) (antibody, V domains shown)
VH: EVQLLESGGGLVQPGGSLRLSCAASGFTFNTYAMNWVRQAPGKGLEWVARIRSKYNNYATYYAISVKDRFTISRDNSKNTLYLQMNSLRAEDTAVYYCVKHGNFGNSYLSYWAYWGQGTLVTVSS
VL: B9 VL with K23Q, S32N, N54K, L55Q, H56R, A91V
- EC50 (read off the curve) [8]: ~80 µg/mL
- EC50 (read off the curve) [9]: ~90 µg/mL
